From patent US20130236458A1 (AbbVie / Abbott, published 2013)
Changes are numbered by the printed parent chain. Each block holds one binder with its values, some of them ahead of it.

How the values were obtained:
Recombinant Human IL-17 [1] = molecular target: T1, Recombinant Human IL-17 (human, UniProt Q16552 20-155, limits assumed); assay: cell-based or functional assay
T1 sequence (looked up): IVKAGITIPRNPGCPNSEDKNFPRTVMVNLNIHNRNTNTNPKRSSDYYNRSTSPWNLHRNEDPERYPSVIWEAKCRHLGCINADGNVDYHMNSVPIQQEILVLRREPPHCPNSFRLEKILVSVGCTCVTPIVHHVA

Recombinant Human IL-17 [2] = molecular target: T1, Recombinant Human IL-17; assay: SPR (Biacore)
Summary of the method: (§1)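 Antibodies or DVD-Ig captured on anti-mouse IgG (Fcγ) CM5 surface; antigen injected at 10–200 nM in HBS-EP, pH 7.4, 25 °C, 25 µL/min. kon and koff from global 1:1 Langmuir fit; KD = koff/kon.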

Recombinant Human IL-13 [3] = molecular target: T2, Recombinant Human IL-13 (human, UniProt P35225 35-146, limits assumed); assay: SPR (Biacore)
T2 construct: bought reagent
T2 sequence (P35225 35-146 limits assumed): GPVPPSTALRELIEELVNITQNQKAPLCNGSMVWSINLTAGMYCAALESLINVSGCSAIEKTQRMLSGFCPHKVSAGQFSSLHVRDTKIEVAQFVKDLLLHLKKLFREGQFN
Summary of the method: as §1

Recombinant Human IL-13 [4] = molecular target: T2, Recombinant Human IL-13; assay: cell-based or functional assay

B1: DVD2172 (bispecific antibody)
VH: EVQLVQSGAEVKKPGASVKVSCKASGYTFTTYGVSWVRQAPGQGLEWMGEIYPGNYNTYYNEKFRGRVTMTTDTSTSTAYMELRSLRSDDTAVYYCARWRTSYFSDYGYFDYWGQGTTVTVSSASTKGPEVQLVQSGAEVKKPGSSVKVSCKASGGSFGGYGIGWVRQAPGQGLEWMGGITPFFGFADYAQKFQGRVTITADESTTTAYMELSGLTSDDTAVYYCARDPNEFWNGYYSTHDFDSWGQGTTVTVSS
VL: DVVMTQSPLSLPVTLGQPASISCRSSQSLVHSHGNTYLHWYQQRPGQSPRLLIYTVSNRFSGVPDRFSGSGSGTDFTLKISRVEAEDVGVYYCSQSTHVPYTFGGGTKVEIKRTVAAPEIVLTQSPDFQSVTPKEKVTITCRASQDIGSELHWYQQKPDQPPKLLIKYASHSTSGVPSRFSGSGSGTDFTLTINGLEAEDAGTYYCHQTDSLPYTFGPGTKVDIKR
notes: DVD-Ig; also called DVD2172H; DVD2172L
C-Terminal VD IL17 Neutralization Assay IC50 (Recombinant Human IL-17 [1]): 0.678 nM
Kd (Recombinant Human IL-17 [2]): 26 nM
koff (Recombinant Human IL-17 [2]): 0.00017 s⁻¹
kon (Recombinant Human IL-17 [2]): 6800 M⁻¹ s⁻¹
Kd (Recombinant Human IL-13 [3]): 0.033 nM
koff (Recombinant Human IL-13 [3]): 2.9e-05 s⁻¹
kon (Recombinant Human IL-13 [3]): 890000 M⁻¹ s⁻¹
N-Terminal VD IL13 Neutralization Assay IC50 (Recombinant Human IL-13 [4]): 0.111 nM

B2: DVD2174 (bispecific antibody)
VH: B1 VH
VL: DVVMTQSPLSLPVTLGQPASISCRSSQSLVHSHGNTYLHWYQQRPGQSPRLLIYTVSNRFSGVPDRFSGSGSGTDFTLKISRVEAEDVGVYYCSQSTHVPYTFGGGTKVEIKRTVAAPSVFIFPPEIVLTQSPDFQSVTPKEKVTITCRASQDIGSELHWYQQKPDQPPKLLIKYASHSTSGVPSRFSGSGSGTDFTLTINGLEAEDAGTYYCHQTDSLPYTFGPGTKVDIKR
notes: DVD-Ig; also called DVD2174H; DVD2174L
C-Terminal VD IL17 Neutralization Assay IC50 (Recombinant Human IL-17 [1]): 0.0126 nM
Kd (Recombinant Human IL-17 [2]): 0.098 nM
koff (Recombinant Human IL-17 [2]): 1.8e-05 s⁻¹
kon (Recombinant Human IL-17 [2]): 180000 M⁻¹ s⁻¹
Kd (Recombinant Human IL-13 [3]): 0.036 nM
koff (Recombinant Human IL-13 [3]): 2.8e-05 s⁻¹
kon (Recombinant Human IL-13 [3]): 790000 M⁻¹ s⁻¹
N-Terminal VD IL13 Neutralization Assay IC50 (Recombinant Human IL-13 [4]): 0.085 nM

B3: DVD2181 (bispecific antibody)
VH: EVQLVQSGAEVKKPGESVKISCKASGGSFRSYGISWVRQAPGQGLEWMGGITHFFGITDYAQKFQGRVTITADESTTTAYMELSGLTSDDTAVYYCAREPNDFWNGYYDTHDFDSWGQGTTVTVSSASTKGPEVQLVQSGAEVKKPGASVKVSCKASGYTFTTYGVSWVRQAPGQGLEWMGEIYPGNYNTYYNEKFRGRVTMTTDTSTSTAYMELRSLRSDDTAVYYCARWRTSYFSDYGYFDYWGQGTTVTVSS
VL: EIVLTQSPDFQSVTPKEKVTITCRASQNIGSELHWYQQKPDQSPKLLIKYASHSISGVPSRFSGSGSGTDFTLTINGLEAEDAATYYCHQSDTLPHTFGQGTKVDIKRTVAAPSVFIFPPDVVMTQSPLSLPVTLGQPASISCRSSQSLVHSHGNTYLHWYQQRPGQSPRLLIYTVSNRFSGVPDRFSGSGSGTDFTLKISRVEAEDVGVYYCSQSTHVPYTFGGGTKVEIKR
notes: DVD-Ig; also called DVD2181H; DVD2181L
N-Terminal VD IL17 Neutralization Assay IC50 (Recombinant Human IL-17 [1]): 0.0097 nM
Kd (Recombinant Human IL-17 [2]): 0.016 nM
koff (Recombinant Human IL-17 [2]): 4.2e-05 s⁻¹
kon (Recombinant Human IL-17 [2]): 2.6e+06 M⁻¹ s⁻¹
Kd (Recombinant Human IL-13 [3]): < 0.012 nM
koff (Recombinant Human IL-13 [3]): < 1e-06 s⁻¹
kon (Recombinant Human IL-13 [3]): 82000 M⁻¹ s⁻¹
C-Terminal VD IL13 Neutralization Assay IC50 (Recombinant Human IL-13 [4]): 0.04 nM

B5: DVD2177 (bispecific antibody)
VH: EVQLVQSGAEVKKPGSSVKVSCKASGGSFGGYGIGWVRQAPGQGLEWMGGITPFFGFADYAQKFQGRVTITADESTTTAYMELSGLTSDDTAVYYCARDPNEFWNGYYSTHDFDSWGQGTTVTVSSASTKGPSVFPLAPEVQLVQSGAEVKKPGASVKVSCKASGYTFTTYGVSWVRQAPGQGLEWMGEIYPGNYNTYYNEKFRGRVTMTTDTSTSTAYMELRSLRSDDTAVYYCARWRTSYFSDYGYFDYWGQGTTVTVSS
VL: EIVLTQSPDFQSVTPKEKVTITCRASQDIGSELHWYQQKPDQPPKLLIKYASHSTSGVPSRFSGSGSGTDFTLTINGLEAEDAGTYYCHQTDSLPYTFGPGTKVDIKRTVAAPDVVMTQSPLSLPVTLGQPASISCRSSQSLVHSHGNTYLHWYQQRPGQSPRLLIYTVSNRFSGVPDRFSGSGSGTDFTLKISRVEAEDVGVYYCSQSTHVPYTFGGGTKVEIKR
notes: DVD-Ig; also called DVD2177H; DVD2177L
N-Terminal VD IL17 Neutralization Assay IC50 (Recombinant Human IL-17 [1]): 0.0101 nM
Kd (Recombinant Human IL-17 [2]): ≤ 0.0043 nM
koff (Recombinant Human IL-17 [2]): ≤ 1e-05 s⁻¹
kon (Recombinant Human IL-17 [2]): 2.5e+06 M⁻¹ s⁻¹
Kd (Recombinant Human IL-13 [3]): < 0.0091 nM
koff (Recombinant Human IL-13 [3]): < 1e-06 s⁻¹
kon (Recombinant Human IL-13 [3]): 110000 M⁻¹ s⁻¹
C-Terminal VD IL13 Neutralization Assay IC50 (Recombinant Human IL-13 [4]): 0.155 nM

The remaining binders from weak to strong by Kd (Recombinant Human IL-17 [2]), led by results:

N-Terminal VD IL17 Neutralization Assay IC50 (Recombinant Human IL-17 [1]): 0.0097 nM
Kd (Recombinant Human IL-17 [2]): 0.039 nM
koff (Recombinant Human IL-17 [2]): 6.4e-05 s⁻¹
kon (Recombinant Human IL-17 [2]): 1.7e+06 M⁻¹ s⁻¹
Kd (Recombinant Human IL-13 [3]): ≤ 0.0036 nM
koff (Recombinant Human IL-13 [3]): ≤ 1e-06 s⁻¹
kon (Recombinant Human IL-13 [3]): 280000 M⁻¹ s⁻¹
C-Terminal VD IL13 Neutralization Assay IC50 (Recombinant Human IL-13 [4]): 0.916 nM
B6: DVD2179 (bispecific antibody)
VH: B3 VH
VL: B5 VL with D28N, P43S, T55I, G84A, T91S, S93T, Y96H, P100Q
notes: DVD-Ig; also called DVD2179H; DVD2179L

N-Terminal VD IL17 Neutralization Assay IC50 (Recombinant Human IL-17 [1]): 0.008 nM
Kd (Recombinant Human IL-17 [2]): 0.0036 nM
koff (Recombinant Human IL-17 [2]): 9e-06 s⁻¹
kon (Recombinant Human IL-17 [2]): 2.5e+06 M⁻¹ s⁻¹
Kd (Recombinant Human IL-13 [3]): 0.12 nM
koff (Recombinant Human IL-13 [3]): 3.7e-05 s⁻¹
kon (Recombinant Human IL-13 [3]): 310000 M⁻¹ s⁻¹
C-Terminal VD IL13 Neutralization Assay IC50 (Recombinant Human IL-13 [4]): 2.14 nM
B4: DVD2173 (bispecific antibody)
VH: EVQLVQSGAEVKKPGSSVKVSCKASGGSFGGYGIGWVRQAPGQGLEWMGGITPFFGFADYAQKFQGRVTITADESTTTAYMELSGLTSDDTAVYYCARDPNEFWNGYYSTHDFDSWGQGTTVTVSSASTKGPEVQLVQSGAEVKKPGASVKVSCKASGYTFTTYGVSWVRQAPGQGLEWMGEIYPGNYNTYYNEKFRGRVTMTTDTSTSTAYMELRSLRSDDTAVYYCARWRTSYFSDYGYFDYWGQGTTVTVSS
VL: B5 VL
notes: DVD-Ig; also called DVD2173H; DVD2173L

N-Terminal VD IL17 Neutralization Assay IC50 (Recombinant Human IL-17 [1]): 0.0089 nM
Kd (Recombinant Human IL-17 [2]): 0.0021 nM
koff (Recombinant Human IL-17 [2]): 5.4e-06 s⁻¹
kon (Recombinant Human IL-17 [2]): 2.7e+06 M⁻¹ s⁻¹
Kd (Recombinant Human IL-13 [3]): < 0.019 nM
koff (Recombinant Human IL-13 [3]): < 1e-06 s⁻¹
kon (Recombinant Human IL-13 [3]): 52000 M⁻¹ s⁻¹
C-Terminal VD IL13 Neutralization Assay IC50 (Recombinant Human IL-13 [4]): 0.115 nM
B7: DVD2175 (bispecific antibody)
VH: B4 VH
VL: B3 VL with N28D, S43P, I55T, A84G, S91T, T93S, H96Y, Q100P
notes: DVD-Ig; also called DVD2175H; DVD2175L
